Source: paper doi:10.1101/2020.05.14.097071
Where two headings read alike, the source gives them in different places.

Tests used:
[1] = biological target: monomeric RAD51 (HumRadA22)
[2] = biological target: monomeric RAD51 (HumRadA22); assay: ITC
[3] = biological target: monomeric RAD51 (HumRadA22); assay: fluorescence polarisation

Substance	Kd [1]	Kd [2]	Kd [3]
BRC4 with deletion of Lys1530 (peptide)	4100 nM	–	–
BRC8-2(S2056A) (peptide)	–	5 nM	–
GB1-BRC4 (peptide)	21 nM	11 nM	38 nM
GB1-BRC4-5 (peptide)	–	–	2100 nM
GB1-BRC7-8 (peptide)	–	–	11000 nM
